# In patent US20130287781A1 (GlaxoSmithKline, published 2013):
# Where two headings read alike, the source gives them in different places.
# T1: native human Nogo-A of IMR32 neuroblastoma cells (intracellular) (human, UniProt Q9NQC3 1-1192)
# T1 construct: whole, on cells; Detected inside permeabilised, fixed cells (ER-resident), not on the cell surface; also called intracellular Nogo-A; native Nogo-A
# T1 sequence (looked up): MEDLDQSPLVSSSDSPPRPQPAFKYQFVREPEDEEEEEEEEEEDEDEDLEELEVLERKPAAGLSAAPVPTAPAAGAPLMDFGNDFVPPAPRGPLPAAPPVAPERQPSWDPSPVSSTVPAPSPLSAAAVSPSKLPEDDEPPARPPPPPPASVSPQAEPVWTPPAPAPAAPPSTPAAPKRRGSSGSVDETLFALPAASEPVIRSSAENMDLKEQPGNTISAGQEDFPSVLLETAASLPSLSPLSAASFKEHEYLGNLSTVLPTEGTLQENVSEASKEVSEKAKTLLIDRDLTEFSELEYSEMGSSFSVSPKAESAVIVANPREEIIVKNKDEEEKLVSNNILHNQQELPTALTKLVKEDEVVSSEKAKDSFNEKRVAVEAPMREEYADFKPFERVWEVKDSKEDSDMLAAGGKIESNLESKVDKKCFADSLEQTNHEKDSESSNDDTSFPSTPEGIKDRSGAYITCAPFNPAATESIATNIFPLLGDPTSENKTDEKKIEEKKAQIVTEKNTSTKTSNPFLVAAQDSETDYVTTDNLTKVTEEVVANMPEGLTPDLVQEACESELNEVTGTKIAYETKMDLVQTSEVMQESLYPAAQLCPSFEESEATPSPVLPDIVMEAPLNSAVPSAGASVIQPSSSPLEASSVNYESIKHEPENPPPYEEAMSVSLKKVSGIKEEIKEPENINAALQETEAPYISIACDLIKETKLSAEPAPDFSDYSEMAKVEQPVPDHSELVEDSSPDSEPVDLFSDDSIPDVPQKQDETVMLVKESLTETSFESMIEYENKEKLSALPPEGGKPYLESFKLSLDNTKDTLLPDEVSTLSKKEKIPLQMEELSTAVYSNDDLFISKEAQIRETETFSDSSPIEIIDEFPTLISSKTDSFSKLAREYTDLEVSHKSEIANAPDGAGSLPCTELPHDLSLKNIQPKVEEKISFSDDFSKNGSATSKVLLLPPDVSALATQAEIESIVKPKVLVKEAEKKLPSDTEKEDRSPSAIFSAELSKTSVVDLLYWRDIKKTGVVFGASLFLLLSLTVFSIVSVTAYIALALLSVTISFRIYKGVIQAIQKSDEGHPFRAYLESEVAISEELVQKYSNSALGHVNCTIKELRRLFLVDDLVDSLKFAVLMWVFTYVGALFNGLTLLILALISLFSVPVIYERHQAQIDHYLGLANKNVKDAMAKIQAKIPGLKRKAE
# B1: HcLc (chimera of 2A10: murine 2A10 VH and VL with human IgG constant regions) (antibody, V domains shown)
# VH: QVQLQQPGTELVKPGASVKLSCKASGYTFTSYWMHWVKQRPGQGLEWIGNINPSNGGTNYNEKFKSKATLTVDKSSSTAYMQLSSLTSEDSAVYYCELGQGYWGQGTLVTVSS
# VL: DIVITQDELSNPVTSGESVSISCRSSKSLLYKDGKTYLNWFLQRPGQSPQLLIYLMSTRASGVSDRFSGSGSGTDFTLEISRVKAEDVGVYYCQQLVEYPLTFGAGTKLELKR
# notes: also called chimeric antibody; chimeric form of the parental antibody
# B2: H28L16 (antibody, human IgG1, kappa)
# heavy: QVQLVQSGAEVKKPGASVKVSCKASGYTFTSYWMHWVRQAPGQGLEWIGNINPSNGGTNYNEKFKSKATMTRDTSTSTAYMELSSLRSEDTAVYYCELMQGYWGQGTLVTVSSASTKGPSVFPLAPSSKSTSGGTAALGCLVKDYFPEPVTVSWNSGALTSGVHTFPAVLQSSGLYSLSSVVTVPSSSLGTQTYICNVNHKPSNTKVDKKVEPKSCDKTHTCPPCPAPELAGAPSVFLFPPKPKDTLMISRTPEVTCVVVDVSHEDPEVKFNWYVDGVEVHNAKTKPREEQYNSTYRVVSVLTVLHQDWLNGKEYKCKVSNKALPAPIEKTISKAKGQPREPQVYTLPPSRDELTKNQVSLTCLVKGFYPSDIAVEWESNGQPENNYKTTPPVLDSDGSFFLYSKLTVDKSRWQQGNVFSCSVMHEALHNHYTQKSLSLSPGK
# light: DIVMTQSPLSNPVTLGQPVSISCRSSKSLLYKDGKTYLNWFLQRPGQSPQLLIYLMSTRASGVPDRFSGGGSGTDFTLKISRVEAEDVGVYYCQQLVEYPLTFGQGTKLEIKRTVAAPSVFIFPPSDEQLKSGTASVVCLLNNFYPREAKVQWKVDNALQSGNSQESVTEQDSKDSTYSLSSTLTLSKADYEKHKVYACEVTHQGLSSPVTKSFNRGEC
# notes: IgG1 (L235A, G237A) / kappa; CAMPATH-1H signal (1-19) left out; also called H28FL L16FL; NOGO H28L16
# How the values were obtained:
# GST-human NOGO-A56 [1] = biological target: T2, GST-human NOGO-A56 (human); assay: reverse format ELISA: antibody captured on anti-human IgG, GST-Nogo-A 5+6 detected with anti-GST-HRP; the x axis is the antibody concentration
# T2 construct: Expressed in E. coli BL21 from pGEX-6P1 and purified on glutathione-sepharose; the GST tag is part of the protein in the assays; also called GST-Nogo-A 5+6; GST Nogo-A 5 + 6
# GST-human NOGO-A56 [2] = biological target: T2, GST-human NOGO-A56; assay: SPR (Biacore), GST-human NOGO-A56 amine-coupled to CM5, antibody flowed over, 25 C
# Description: (§1) GST-human NOGO-A56 was immobilised to a CM5 chip by primary amine coupling using the Biacore Wizard program designed for targeted immobilisation levels. The CM5 sensor surface was activated by passing a solution of 50 mM N-hydroxy-succinimide (NHS) and 200 mM N-ethyl-N′-dimethylaminopropyl carbonide (EDC). Then GST-human NOGO-A56 in sodium acetate buffer, pH5.0 or pH 4.5, was passed over the chip and immobilised. After immobilisation was complete any still activated esters were blocked by an injection of 1M ethanolamine hydrochloride, pH8.5.
# (§2) The anti-NOGO mAbs were diluted down in HBS-EP (10 mM HEPES, pH 7.4, 150 mM NaCl, 3 mM EDTA, and 0.005% P-20 surfactant) for the BIAcore 3000 or HBS-EP+ (10 mM HEPES, pH 7.4, 150 mM NaCl, 3 mM EDTA, and 0.05% P-20 surfactant) in the case of the T100 and binding studies were carried out at range of defined antibody concentrations. All runs were referenced against a blanked sensor surface (one that had been activated and blocked as described earlier but had no addition of ligand). Analysis of binding was carried out using the BIAevaluation kinetic analysis software version 4.1 for the BIAcore 3000 and T100 kinetic analysis software version 1.0. […] Unless otherwise stated, the BIAcore experiments were performed at 25° C.
# [3] = biological target: T1, native human Nogo-A of IMR32 …; assay: flow cytometry on permeabilised, fixed IMR32 cells (intracellular Nogo-A), PE anti-human IgG, MFI
# Description: In the second assay, the ability of the humanised antibodies to bind native Nogo-A was assessed using a human neuroblastoma cell line—IMR32. This cell line is characterised by high intracellular/low cell surface levels of Nogo-A protein. In an attempt to increase the binding signal, the assay was set-up to detect intracellular Nogo-A (ER-resident). IMR32 cells were permeabilised and fixed prior to staining with the anti-Nogo-A humanised antibodies. Binding of the antibodies to Nogo-A was detected using an anti-human IgG-PE labelled secondary (Sigma, #P8047).
# GST-human NOGO-A56 [4] = biological target: T2, GST-human NOGO-A56; assay: SPR (Biacore), GST-human NOGO-A56 amine-coupled to CM5, antibody flowed over, 25 C; remark: listed apart in the source
# Description: as §1, §2
# GST-human NOGO-A56 [5] = biological target: T2, GST-human NOGO-A56; assay: as above; remark: listed apart in the source
# Description: as §1, §2
# GST-human NOGO-A56 [6] = biological target: T2, GST-human NOGO-A56; assay: direct ELISA, GST-Nogo-A 5+6 coated at 1.0 mcg/ml, anti-human IgG-HRP, Abs490
# Description: (§3) Wells were rinsed once with TBS+0.05% Tween (TBST) then incubated with 2% BSA in TBST to block non-specific binding sites at room temperature for 1 hour. Antibodies were diluted in TBST+2% BSA to 10 μg/ml and ½ dilutions made from this. Antibodies were added to wells in duplicate and incubated at room temperature for 1 hour. […] The wells were washed three times with TBST and then incubated with 100 μl OPD peroxidase substrate (Sigma) per well for 10 minutes. The colour reaction was stopped by the addition of 25 μl concentrated H₂SO₄. Optical density at 490 nm was measured using a plate reader. Background values read from wells with no antibody were subtracted.
# GST-human NOGO-A56 [7] = biological target: T2, GST-human NOGO-A56; assay: direct ELISA, GST-human NOGO-A56 coated at 1.0 mcg/ml, purified antibody, OD490
# Description: as §3
# [8] = biological target: T3, Squirrel monkey NOGO (A56) plus GST tag (squirrel monkey); assay: SPR (Biacore T100), reverse format: antibody captured by Protein A, GST-NOGO-A56 flowed over; mean
# T3 construct: also called GST-NOGO-A56 from squirrel monkey
# Excerpt: (§4) Protein A was immobilised on the surface at about 4000RUs and anti-Nogo-A antibodies were captured at approximately 300-400RUs. […] All the runs were done in duplicates. The values show the mean and standard deviation (in brackets) of 1-3 independent runs with each run done in duplicate and each data set analysed independently prior to calculation of the mean and standard deviation.
# GST-human NOGO-A56 [9] = biological target: T2, GST-human NOGO-A56; assay: as above
# Excerpt: as §4
# [10] = biological target: T4, Rat NOGO (A56) plus GST tag (rat); assay: as above
# T4 construct: also called GST-NOGO-A56 from rat
# Excerpt: as §4
# [11] = biological target: T5, Cynomolgus monkey NOGO (A56) plus GST tag (cynomolgus monkey); assay: as above
# T5 construct: also called cynomolgus Nogo-A; GST-NOGO-A56 from cynomolgus
# Excerpt: as §4
# [12] = biological target: T6, Marmoset NOGO (A56) plus GST tag (marmoset); assay: as above
# T6 construct: also called GST-NOGO-A56 from marmoset
# Excerpt: as §4
# GST-human NOGO-A56 [13] = biological target: T2, GST-human NOGO-A56; assay: SPR (Biacore T100), reverse format: antibody captured by Protein A, GST Nogo-A 5+6 0.125-8 nM flowed over; mean (SD in brackets)
# Excerpt: Protein A was immobilised to approximately 4000RUs by primary amine and used to capture 200-300RUs of the sample antibodies. […] The values show the mean and standard deviation (in brackets) of three independent runs in duplicate. Each data set was independently analysed prior to the calculation of the mean and standard deviation.
# GST-human NOGO-A56 [14] = biological target: T2, GST-human NOGO-A56; assay: direct ELISA, GST-human NOGO-A56 coated at 1.0 mcg/ml, purified antibody, OD490; remark: listed apart in the source
# Description: as §3
# [15] = biological target: T4, Rat NOGO (A56) plus GST tag; assay: direct ELISA on GST-NOGO-A56 from rat, Abs490
# T4 sequence (chain, as listed by the source limits assumed): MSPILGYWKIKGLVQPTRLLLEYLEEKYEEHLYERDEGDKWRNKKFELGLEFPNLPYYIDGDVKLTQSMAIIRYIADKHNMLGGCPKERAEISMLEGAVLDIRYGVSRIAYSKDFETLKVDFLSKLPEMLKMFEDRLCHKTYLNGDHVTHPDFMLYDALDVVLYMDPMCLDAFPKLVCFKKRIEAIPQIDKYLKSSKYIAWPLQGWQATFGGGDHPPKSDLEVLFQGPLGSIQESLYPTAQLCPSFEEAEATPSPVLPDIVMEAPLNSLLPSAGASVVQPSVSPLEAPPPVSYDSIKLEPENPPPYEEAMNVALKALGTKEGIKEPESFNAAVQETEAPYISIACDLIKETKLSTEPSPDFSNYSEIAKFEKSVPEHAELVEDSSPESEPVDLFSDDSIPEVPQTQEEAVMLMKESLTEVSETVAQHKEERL
# T2 sequence (chain, as listed by the source limits assumed): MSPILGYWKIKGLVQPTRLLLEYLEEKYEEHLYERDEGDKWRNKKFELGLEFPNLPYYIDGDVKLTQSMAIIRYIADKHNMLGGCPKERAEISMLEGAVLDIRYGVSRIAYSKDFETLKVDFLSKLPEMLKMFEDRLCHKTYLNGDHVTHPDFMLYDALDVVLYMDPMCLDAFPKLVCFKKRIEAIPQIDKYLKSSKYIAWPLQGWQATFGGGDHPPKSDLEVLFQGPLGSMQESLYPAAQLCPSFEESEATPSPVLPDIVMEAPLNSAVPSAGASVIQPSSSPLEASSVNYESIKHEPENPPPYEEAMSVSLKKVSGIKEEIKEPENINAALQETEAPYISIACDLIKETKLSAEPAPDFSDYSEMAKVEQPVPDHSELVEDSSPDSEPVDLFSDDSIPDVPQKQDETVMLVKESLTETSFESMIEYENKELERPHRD
# T3 sequence (chain, as listed by the source limits assumed): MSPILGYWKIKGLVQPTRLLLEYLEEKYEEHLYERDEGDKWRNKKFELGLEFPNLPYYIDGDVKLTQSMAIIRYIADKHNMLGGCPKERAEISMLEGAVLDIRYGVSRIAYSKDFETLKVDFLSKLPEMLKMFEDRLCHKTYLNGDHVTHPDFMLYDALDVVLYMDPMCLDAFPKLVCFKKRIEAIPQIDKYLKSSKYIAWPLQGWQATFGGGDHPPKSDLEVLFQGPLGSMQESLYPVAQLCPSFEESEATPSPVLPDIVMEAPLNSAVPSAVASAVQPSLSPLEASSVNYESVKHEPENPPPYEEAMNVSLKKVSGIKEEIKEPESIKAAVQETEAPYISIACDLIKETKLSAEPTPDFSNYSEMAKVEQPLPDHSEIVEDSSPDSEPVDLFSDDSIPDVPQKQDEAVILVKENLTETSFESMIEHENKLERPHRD
# T6 sequence (chain, as listed by the source limits assumed): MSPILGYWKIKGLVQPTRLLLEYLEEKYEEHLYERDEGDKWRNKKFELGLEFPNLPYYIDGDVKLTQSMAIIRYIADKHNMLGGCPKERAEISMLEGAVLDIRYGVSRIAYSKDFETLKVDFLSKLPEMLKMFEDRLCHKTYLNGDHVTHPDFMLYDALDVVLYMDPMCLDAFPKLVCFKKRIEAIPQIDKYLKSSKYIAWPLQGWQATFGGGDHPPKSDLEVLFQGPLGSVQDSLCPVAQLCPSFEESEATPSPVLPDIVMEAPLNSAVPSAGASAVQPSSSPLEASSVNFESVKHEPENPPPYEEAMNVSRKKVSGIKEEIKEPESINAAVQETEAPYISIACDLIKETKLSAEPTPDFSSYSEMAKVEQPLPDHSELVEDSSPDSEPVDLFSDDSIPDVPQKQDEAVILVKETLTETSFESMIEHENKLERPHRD
# T5 sequence (chain, as listed by the source limits assumed): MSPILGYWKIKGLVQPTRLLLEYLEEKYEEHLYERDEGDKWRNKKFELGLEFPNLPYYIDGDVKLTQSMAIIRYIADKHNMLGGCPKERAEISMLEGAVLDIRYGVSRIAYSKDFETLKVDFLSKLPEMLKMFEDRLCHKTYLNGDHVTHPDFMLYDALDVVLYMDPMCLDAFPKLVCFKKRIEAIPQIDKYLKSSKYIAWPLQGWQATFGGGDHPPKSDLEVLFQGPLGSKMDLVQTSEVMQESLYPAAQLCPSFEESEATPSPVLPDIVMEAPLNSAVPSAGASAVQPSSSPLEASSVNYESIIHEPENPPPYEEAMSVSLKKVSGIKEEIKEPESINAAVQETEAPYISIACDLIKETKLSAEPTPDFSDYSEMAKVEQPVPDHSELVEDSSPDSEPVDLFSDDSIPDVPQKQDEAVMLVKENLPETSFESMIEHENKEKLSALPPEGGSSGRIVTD
Binder,EC50 (read off the curve) (GST-human NOGO-A56 [1]),Kd (GST-human NOGO-A56 [2]),koff (GST-human NOGO-A56 [2]),kon (GST-human NOGO-A56 [2]),binding result [3],Kd (GST-human NOGO-A56 [4]),koff (GST-human NOGO-A56 [4]),kon (GST-human NOGO-A56 [4]),Kd (GST-human NOGO-A56 [5]),koff (GST-human NOGO-A56 [5]),kon (GST-human NOGO-A56 [5]),EC50 (read off the curve) (GST-human NOGO-A56 [6]),EC50 (read off the curve) (GST-human NOGO-A56 [7]),Kd [8],Kd (GST-human NOGO-A56 [9]),Kd [10],Kd [11],Kd [12],Kd (GST-human NOGO-A56 [13]),EC50 (read off the curve) (GST-human NOGO-A56 [14]),also measured
B1,~0.1 µg/mL,1.18 nM,0.00313 s⁻¹,2.66e+06 M⁻¹ s⁻¹,binds,0.74 nM,0.00233 s⁻¹,3.17e+06 M⁻¹ s⁻¹,0.779 nM,0.00249 s⁻¹,3.19e+06 M⁻¹ s⁻¹,~0.08 µg/mL,~0.06 µg/mL,7.45 nM,0.54 nM,2.01 nM,4.66 nM,4.51 nM,0.41 nM,~0.09 µg/mL,EC50 (read off the curve) [15]: ~0.1 µg/mL
B2,~0.06 µg/mL,0.61 nM,0.00264 s⁻¹,4.33e+06 M⁻¹ s⁻¹,binds,0.28 nM,0.00195 s⁻¹,6.89e+06 M⁻¹ s⁻¹,0.296 nM,0.00214 s⁻¹,7.25e+06 M⁻¹ s⁻¹,~0.03 µg/mL,~0.06 µg/mL,6.86 nM,0.4 nM,1.76 nM,3.41 nM,4.89 nM,0.34 nM,~0.08 µg/mL,EC50 (read off the curve) [15]: ~0.05 µg/mL
